Experimental data: paper PMC11480844

B1: H2-Kb / B2 (parent)
chain 1: GEQVEQRPPHLSVREGDSAVIICTYTDPNSYYFFWYKQEPGAGLQLLMKVFSSTEINEGQGFTVLLNKKDKQLSLNLTAAHPGDSAVYFCAVSQMSNYNVLYFGSGTKLTVEP
chain 2: EAAVTQSPRNKVAVTGGKVTLSCNQTNNHNNMYWYRQDTGHGLRLIHYSYGAGSTEKGDIPDGYKASRPSQENFSLILELATPSQTSVYFCASGTGGSGQLYFGEGSKLTVL
chain 3: not shown
chain 4: IQKTPQIQVYSRHPPENGKPNILNCYVTQFHPPHIEIQMLKNGKKIPKVEMSDMSFSKDWSFYILAHTEFTPTETDTYACRVKHDSMAEPKTVYWDRDM
chain 5: SIINFEKL
B2: H2-Kb / B14 (parent)
chain 1: GEQVEQRPPHLSVREGDSAVIICTYTDPNSYYFFWYKQEPGAGLQLLMKVFSSTEINEGQGFTVLLNKKDKQLSLNLTAAHPGDSAVYFCAVSARGNMGYKLTFGTGTSLLVDP
chain 2: GGIITQTPKFLIGQEGQKLTLKCQQNFNHDTMYWYRQDSGKGLRLIYYSITENDLQKGDLSEGYDASREKKSSFSLTVTSAQKNEMAVFLCASSMGQGASDYTFGSGTRLLVI
chain 3: not shown
chain 4: B1 chain 4
chain 5: SIINFEKL

Variants of: B1
Experiment: % of reporter cells activated (NFAT-GFP), raw
Conditions: with B2; scale: % of reporter cells activated
Note: test concentration or dose not given here.

Ratio to parent, by site and new letter:
chain 5 L8: N 0.897, P 3.65, Q 2.52, R 0.773, S 1.08, T 1.29, V 0.211, W 2.09, Y 1.03
chain 5 N4: A 0.432, C 0.162, D 0.541, E 0.416, F 0.557, G 0.335, H 0.584, I 0.557, K 0.362, L 0.503, M 0.535, P 0.503, Q 0.259, R 0.324, S 0.422, T 0.373, V 0.281, W 0.449, Y 0.481
chain 5 S1: A 3.1, C 0.773, D 2.9, E 0.768, F 4.16, G 4.72, H 1.74, I 10.3, K 2.57, L 7.3, M 5.85, N 0.465, P 6.59, Q 1.77, R 5.53, T 1.02, V 8.24, W 8.98, Y 6.51

Variants of: B2
Experiment: % of reporter cells activated (NFAT-GFP), raw
Conditions: with B14; scale: % of reporter cells activated

Ratio to parent, by site and new letter:
chain 5 E6: A 0.418, C 1.16, D 0.618, F 1.47, G 1.08, H 0.853, I 0.729, K 0.707, L 0.622, M 0.822, N 1.07, P 0.867, Q 0.876, R 0.373, S 0.751, T 1.41, V 1.69, W 1.2, Y 0.853
chain 5 F5: A 1.33, C 1.96, D 1.32, E 1.08, G 1.07, H 0.96, I 0.831, K 0.636, L 1.11, M 0.893, N 1.1, P 0.791, Q 0.582, R 1.33, S 1.56, T 0.609, V 1.17, W 0.724, Y 0.578
chain 5 I2: A 0.778, C 0.933, D 1.47, E 0.964, F 0.849, G 0.907, H 0.667, K 1.04, L 1.73, M 1.4, N 1, P 2.36, Q 1.07, R 1.87, S 1.08, T 1.16, V 0.52, W 0.933, Y 0.88
chain 5 I3: A 1.33, C 1.96, D 1.46, E 1.28, F 1, G 1.38, H 1.78, K 1.34, L 1.33, M 0.84, N 0.978, P 2, Q 1.69, R 0.858, S 1.6, T 1.47, V 1.6, W 1.11, Y 1.28
chain 5 K7: A 0.907, C 4.53, D 0.791, E 0.622, F 1.42, G 0.489, H 0.796, I 0.96, L 1.56, M 0.787, N 0.707, P 1.64, Q 1.23, R 0.667, S 1.09, T 1.73, V 1.11, W 1.26, Y 1.69
chain 5 L8: A 0.609, C 1.41, D 1.24, E 0.516, F 0.44, G 1.38, H 2.84, I 1.51, K 1.24, M 0.773, N 1.16, P 1.33, Q 1.24, R 0.978, S 0.716, T 1.38, V 0, W 1.11, Y 1.07
chain 5 N4: A 1.32, C 0.916, D 1.23, E 1.33, F 1.51, G 0.644
